According to patent US5910570A, “Cloned DNA encoding a UDP-GalNAc: polypeptide N-acetylgalactosaminy-ltransferase” (Pharmacia & Upjohn Company, priority 1997, dated 1999):
Where “and” joins values, the source holds several entries; their conditions need not be identical. Equal entries are not always repeated.

Assays:
Format in all cases: biochemical, bovine
[1] = substrate: CC(C)C[C@H](NC(=O)[C@@H]1CCCN1C(=O)[C@H](C)NC(=O)[C@H](C)NC(=O)[C@H](CO)NC(=O)[C@H](C)NC(=O)[C@H](C)NC(=O)[C@H](CC(=O)O)NC(=O)[C@@H]1CCCN1C(=O)[C@@H]1CCCN1)C(=O)N[C@@H](CCCNC(=N)N)C(=O)O; assay: Kinetic parameters with the cloned soluble GalNAc-transferase (Bond Elut assay); details: other: GalNAcTs; double reciprocal plots
[2] = substrate: C[C@H](NC(=O)[C@@H]1CCCN1C(=O)[C@@H]1CCCN1)C(=O)N[C@@H](CO)C(=O)N[C@H](C(=O)N[C@@H](CO)C(=O)N[C@@H](C)C(=O)N1CCC[C@H]1C(=O)NCC(=O)O)[C@@H](C)O; assay: as above; details: other: GalNAcTs; double reciprocal plots
[3] = substrate: C[C@@H](O)[C@H](NC(=O)[C@@H](N)CCCNC(=N)N)C(=O)N1CCC[C@H]1C(=O)N1CCC[C@H]1C(=O)N1CCC[C@H]1C(=O)O; assay: Determination of kinetic parameters for acceptor peptides (Dowex-2 assay); details: other: acceptor peptide; 150 μM UDP-GalNAc, 20 minutes; means ± S.E. (n = 3); pH 7.2
Description: (§1) The transfer of N-acetylgalactosamine to peptide acceptors is assayed by two different assays. The concentration of UDP-GalNAc is saturating in all assays; a Km of 8 μM is reported for bovine colostrum GalNAc-transferase (Elhammer and Kornfeld, 1986). For the determination of kinetic parameters the reaction mixture contains 50 mM Imidazole, pH 7.2, 10 mM MnCl2, 0.5% Triton X-100, 150 μM UDP-GalNAc, approximately 120,000 cpm of UDP-[1-^3 H]-GalNAc, varying concentrations of acceptor (see individual experiments) and approximately 5 mU of enzyme in a final volume of 40 μl; standard incubation time is 20 minutes. The reaction is terminated by placing the samples in a boiling water bath for 1.5 minutes. The reaction product (glycosylated peptide) is separated from unreacted UDP-GalNAc by chromatography on Dowex-2 columns (0.5 ml bed volume) equilibrated in water; the run-through fraction (2.5 ml) containing the glycosylated peptide is collected, supplemented with scintillation fluid and counted for radioactivity. For the determination of the low levels of transfer to serine, the assay conditions are as follows: 50 mM Imidazole, pH 7.2, 10 mM MnCl2, 0.5% Triton X-100, 150 μM UDP-GalNAc, approximately 260,000 cpm UDP-[^3 H]-GalNAc and 3.2 mM acceptor peptide (the concentration of RSPPP is 3.7 mM). The assays are incubated for 20 minutes ([…]) [SEQ ID NO:14] or 8 hours ([…] [SEQ ID NO:15], PPAdSSdSAPG and RSPPP [SEQ ID NO:13]). Following incubation, the enzyme is inactivated by placing the samples on a boiling water bath for 1.5 minutes. The samples are then allowed to cool and the reaction products are separated from unreacted UDP-GalNAc and free GalNAc by chromatography on a Biogel P-2 column (1×50 cm) equilibrated in 7% isopropanol; thirty 1.3 ml fractions are collected.
(§2) Assays were carried out as described in Materials and Methods.
(§3) Assay time was 20 minutes.
(§4) The values are given as means ± S.E. (n = 3)

[4] = substrate: C[C@H](NC(=O)[C@@H]1CCCN1C(=O)[C@@H]1CCCN1)C(=O)N[C@@H](CO)C(=O)N[C@@H](CO)C(=O)N[C@@H](CO)C(=O)N[C@@H](C)C(=O)N1CCC[C@H]1C(=O)NCC(=O)O; assay: as above; details: other: calculated assuming that S0 << Km; pH 7.2
Description: as §1, §2, §3, §4

[5] = substrate: C[C@H](NC(=O)[C@@H]1CCCN1C(=O)[C@@H]1CCCN1)C(=O)N[C@@H](CO)C(=O)N[C@H](C(=O)N[C@@H](CO)C(=O)N[C@@H](C)C(=O)N1CCC[C@H]1C(=O)NCC(=O)O)[C@@H](C)O; assay: as above; details: other: acceptor peptide; 150 μM UDP-GalNAc, 20 minutes; means ± S.E. (n = 3); pH 7.2
Description: as §1, §2, §3, §4

[6] = substrate: C[C@H](NC(=O)[C@@H]1CCCN1C(=O)[C@@H]1CCCN1)C(=O)N[C@H](CO)C(=O)N[C@H](C(=O)N[C@H](CO)C(=O)N[C@@H](C)C(=O)N1CCC[C@H]1C(=O)NCC(=O)O)[C@@H](C)O; assay: as above; details: other: calculated assuming that S0 << Km; pH 7.2
Description: as §1, §2, §3, §4

[7] = substrate: N=C(N)NCCC[C@H](N)C(=O)N[C@@H](CO)C(=O)N1CCC[C@H]1C(=O)N1CCC[C@H]1C(=O)N1CCC[C@H]1C(=O)O; assay: as above; details: other: calculated assuming that S0 << Km; pH 7.2
Description: as §1, §2, §3, §4

B1: cloned soluble GalNAc-transferase (GalNAcTs) (Bos taurus) (protein)
chain: LEPVQKPHEGPGEMGKPVVIPKEDQEKMKEMFKINQFNLMASEMIALNRSLPDVRLEGCKTKVYPDNLPTTSVVIVFHNEAWSTLLRTVHSVINRSPRHMLEEIVLVDDASERDFLKRPLESYVKKLKVPVHVIRMEQRSGLIRARLKGAAVSKGQVITFLDAHCECTVGWLEPLLARIKHDRKTVVCPIIDVISDDTFEYMAGSDMTYGGFNWKLNFRWYPVPQREMDRRKGDRTLPVRTPTMAGGLFSIDRDYFQEIGTYDAGMDIWGGENLEISFRIWQCGGTLEIVTCSHVGHVFRKATPYTFPGGTGQIINKNNRRLAEVWMDEFKNFFYIISPGVTKVDYGDISSRLGLRHKLQCRPFSWYLENIYPDSQIPRHYFSLGEIRNVETNQCLDNMARKENEKVGIFNCHGMGGNQVFSYTANKEIRTDDLCLDVSKLNGPVTMLKCHHLKGNQLWEYDPVKLTLQHVNSNQCLDKATDEDSQVPSIRDCSGSRSQQWLLRNVTLPEIF
notes: The plasmid pAC373-GalNAcT (Homa et al., 1993) which contains the full length GalNAc-transferase gene; honeybee melittin signal peptide (21 aa) (N, cleaved yes); made in house; host or cells: Sf9 cells / baculovirus, purified from serum-free culture medium on apomucin-Sepharose
[1]
  Km: 3.6 mM and 3.5 mM
[2]
  Km: 6.5 mM

B2: bovine colostrum GalNAc-transferase (Bos taurus) (protein)
chain: GLPAGDVLEPVQKPHEGPGEMGKPVVIPKEDQEKMKEMFKINQFNLMASEMIALNRSLPDVRLEGCKTKVYPDNLPTTSVVIVFHNEAWSTLLRTVHSVINRSPRHMLEEIVLVDDASERDFLKRPLESYVKKLKVPVHVIRMEQRSGLIRARLKGAAVSKGQVITFLDAHCECTVGWLEPLLARIKHDRKTVVCPIIDVISDDTFEYMAGSDMTYGGFNWKLNFRWYPVPQREMDRRKGDRTLPVRTPTMAGGLFSIDRDYFQEIGTYDAGMDIWGGENLEISFRIWQCGGTLEIVTCSHVGHVFRKATPYTFPGGTGQIINKNNRRLAEVWMDEFKNFFYIISPGVTKVDYGDISSRLGLRHKLQCRPFSWYLENIYPDSQIPRHYFSLGEIRNVETNQCLDNMARKENEKVGIFNCHGMGGNQVFSYTANKEIRTDDLCLDVSKLNGPVTMLKCHHLKGNQLWEYDPVKLTLQHVNSNQCLDKATDEDSQVPSIRDCSGSRSQQWLLRNVTLPEIF
notes: from tissue; host or cells: bovine colostrum
[3]
  Km: 3.3 mM
  kcat: 0.604 ± 0.083 s⁻¹
  kcat/Km: 183 M⁻¹ s⁻¹
[4]
  kcat/Km: 8.5 M⁻¹ s⁻¹
[5]
  Km: 6 mM
  kcat: 1.81 ± 0.357 s⁻¹
  kcat/Km: 301 M⁻¹ s⁻¹
[6]
  kcat/Km: 1.2 M⁻¹ s⁻¹
[7]
  kcat/Km: 0.4 M⁻¹ s⁻¹
